Results as given in PMC4511852.

Assays:
[1] = target: Avitag-RSL-His8 (RSL with biotin via the Avitag on the N-terminus and His8 on the C-terminus) (Ralstonia solanum); assay: SEC
[2] = target: His8-RSL-Avitag (RSL with poly-histidine on the N-terminus and biotin via the Avitag on the C-terminus) (Ralstonia solanum); assay: SEC

Substance | stoichiometry N [1] | stoichiometry N [2]
Avitag-RSL-His8 (RSL with biotin via the Avitag on the N-terminus and His8 on the C-terminus) (natural protein) | 2 | 
His8-RSL-Avitag (RSL with poly-histidine on the N-terminus and biotin via the Avitag on the C-terminus) (natural protein) |  | 3
